Source: the supplement of paper PMC9233669
This sample holds only a part of the variants without activity.

How the values were obtained:
[1] = test system: biotinyl-Phe-oxazolone; assay: self-aminoacylation, catalytic enhancement (BFO) (fold over background); higher = more active; k-Seq, kA / k0A0; sequences stand for … in GGGAAUGGAUCCACAUCUACGAAUUC…UUCACUGCAGACUUGACGAAGCUG
Summary of the method: (§1)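 Mutagenized RNA pools with a 21-nt variable region (0.43 μM) were reacted with each biotinyl-aminoacyl-oxazolone at 2–1250 μM for 90 minutes at room temperature, in 50 μL HEPES/NaCl/KCl/MgCl2/CaCl2 buffer containing 5% acetonitrile at pH 6.9–7.0. RNA captured on streptavidin was quantified by triplicate qPCR and by Illumina sequencing. The fraction reacted for each sequence was fit to a pseudo-first-order model with bootstrapping, and catalytic enhancement is the median kA divided by the uncatalyzed rate, taken as the low-activity peak of a bimodal Gaussian fit.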

[2] = test system: biotinyl-Trp-oxazolone; assay: self-aminoacylation, catalytic enhancement (BWO) (fold over background); higher = more active; k-Seq, kA / k0A0; sequences stand for … in GGGAAUGGAUCCACAUCUACGAAUUC…UUCACUGCAGACUUGACGAAGCUG
Summary of the method: as §1

| Sequence | self-aminoacylation [1] | self-aminoacylation [2] |
| --- | --- | --- |
| AAACACUUCAAGCAAUCGGUC [Fam1B.1 aminoacylation ribozyme variant] | 18 | 11.9 |
| AAAUUUGCUAAUAUUCGCAAG [Fam3.1 aminoacylation ribozyme variant] |  | 2.01 |
| AAGAUUGCUAAUAGGCGCAAG [Fam3.1 aminoacylation ribozyme variant] |  | 2.61 |
| AAGUAUGCUAAAAGUCGCAAG [Fam3.1 aminoacylation ribozyme variant] | 8.97 | 3.97 |
| AAGUAUGCUAAUAGUCGUAAG [Fam3.1 aminoacylation ribozyme variant] | 33.1 | 8.96 |
| AAGUCGGCUAAUAGUCGCAAG [Fam3.1 aminoacylation ribozyme variant] | 9.73 | 4.2 |
| AAGUGUGCUAAUAGUCGGAAG [Fam3.1 aminoacylation ribozyme variant] | 11 | 3.96 |
| AAGUUAGCUAAUCGUCGCAAG [Fam3.1 aminoacylation ribozyme variant] |  | 2.21 |
| AAGUUCGCUAAUAGUCGUAAG [Fam3.1 aminoacylation ribozyme variant] | 13.7 | 4.33 |
| AAGUUGGCUAAUAGUCACAAG [Fam3.1 aminoacylation ribozyme variant] |  | 2.29 |
| AAGUUGGCUAAUAGUCGCAAA [Fam3.1 aminoacylation ribozyme variant] | 2.83 | 2.03 |
| AAGUUUGAUUAUAGUCGCAAG [Fam3.1 aminoacylation ribozyme variant] | 2.29 | 2.07 |
| AAGUUUGCUAAGAGUCGCCAG [Fam3.1 aminoacylation ribozyme variant] |  | 2.06 |
| AAGUUUGCUAAUAGUCGCGAA [Fam3.1 aminoacylation ribozyme variant] | 6.39 | 3.37 |
| AAGUUUGCUAAUUGUCGCAAC [Fam3.1 aminoacylation ribozyme variant] |  | 2.13 |
| AAGUUUGCUCAUAGUCGUAAG [Fam3.1 aminoacylation ribozyme variant] | 14.6 | 3.67 |
| AAUUUUGCUAAUAGUCGCUAG [Fam3.1 aminoacylation ribozyme variant] |  | 2.24 |
| ACACACUUCAAGUAAUCGGUC [Fam1B.1 aminoacylation ribozyme variant] | 7.88 | 6 |
| ACAUACUUCAAGCAAUCGGUC [Fam1B.1 aminoacylation ribozyme variant] | 10.3 | 5.65 |
| AGGUAUGCUAAUAGUCGCAAG [Fam3.1 aminoacylation ribozyme variant] | 9.64 | 3.41 |
| AUAAUUCAAACAAUCGGUCUG [Fam1A.1 aminoacylation ribozyme variant] | 4.88 | 2.97 |
| AUUACCCUGGCCGUCGAGUGA [Fam2.1 aminoacylation ribozyme variant] | 2.1 | 2.4 |
| AUUACCCUGUUCAUCAAGUGA [Fam2.1 aminoacylation ribozyme variant] | 2.65 |  |
| AUUAUCCUGGUCAUCGAGUUA [Fam2.1 aminoacylation ribozyme variant] | 2.02 |  |

| Sequence | self-aminoacylation [1] | self-aminoacylation [2] |
| --- | --- | --- |
| AUUCACCAAGGUCAUCGUGUG [Fam2.2 aminoacylation ribozyme variant] | 8.03 |  |
| AUUCACCGAGGUCAUCGUGUG [Fam2.2 aminoacylation ribozyme variant] | 6.45 |  |
| AUUCACCUAGGACAUCGUGUG [Fam2.2 aminoacylation ribozyme variant] | 3.71 |  |
| AUUCACCUAGGUCACAGGGUG [Fam2.2 aminoacylation ribozyme variant] | 5.68 |  |
| AUUCACCUAGGUCACCGGAUG [Fam2.2 aminoacylation ribozyme variant] | 2.86 |  |
| AUUCACCUAGGUCAUUAGGUG [Fam2.2 aminoacylation ribozyme variant] |  | 2.24 |
| AUUCACCUAGGUCAUUGGUUG [Fam2.2 aminoacylation ribozyme variant] | 2.3 |  |
| AUUCACCUAGGUCGUCGGUUG [Fam2.2 aminoacylation ribozyme variant] | 4.19 |  |
| AUUCACCUAGGUCUUCGGGAG [Fam2.2 aminoacylation ribozyme variant] | 4.51 |  |
| AUUCACCUAGGUUAUCGGGUU [Fam2.2 aminoacylation ribozyme variant] | 5.07 | 2.04 |
| AUUCAGCUAGGUCAUCGUGUG [Fam2.2 aminoacylation ribozyme variant] | 3.57 |  |
| AUUCAUCUAGGUCAUCGGCUG [Fam2.2 aminoacylation ribozyme variant] | 4.5 |  |
| CAAAACUUCAAGCAAUCGGUC [Fam1B.1 aminoacylation ribozyme variant] | 15.2 | 10.6 |
| CAACUGCAAACAAUCGGUCUG [Fam1A.1 aminoacylation ribozyme variant] | 4.06 |  |
| CAGUUUGCUAAUAGUCGAAAG [Fam3.1 aminoacylation ribozyme variant] | 2.53 |  |
| CCAAACUUCAAGGAAUCGGUC [Fam1B.1 aminoacylation ribozyme variant] | 5.98 | 5.42 |
| CCAAUCUUCAAGCAAUCGGUC [Fam1B.1 aminoacylation ribozyme variant] | 18.1 | 10.7 |
| CCACAAUUCAAUCAAUCGGUC [Fam1B.1 aminoacylation ribozyme variant] | 10.8 | 5.08 |
| CCACACUCCAAUCAAUCGGUC [Fam1B.1 aminoacylation ribozyme variant] | 5.95 | 3.48 |
| CCACACUUCAAAAAAUCGGUC [Fam1B.1 aminoacylation ribozyme variant] | 18.2 | 14.5 |
| CCACACUUCAAACAAUCGGGC [Fam1B.1 aminoacylation ribozyme variant] |  | 2.65 |
| CCACACUUCAACAAAUCGGUC [Fam1B.1 aminoacylation ribozyme variant] | 11.5 | 7.95 |
| CCACACUUCAAGAAAUCAGUC [Fam1B.1 aminoacylation ribozyme variant] | 4.56 |  |
| CCACACUUCAAGCGAUGGGUC [Fam1B.1 aminoacylation ribozyme variant] | 3.56 |  |

| Sequence | self-aminoacylation [1] | self-aminoacylation [2] |
| --- | --- | --- |
| CCACACUUCAAGCUAUCGCUC [Fam1B.1 aminoacylation ribozyme variant] | 2.03 |  |
| CCACACUUCAAGGAAUCGGUC [Fam1B.1 aminoacylation ribozyme variant] | 8.21 | 6.13 |
| CCACACUUCACGCAUUCGGUC [Fam1B.1 aminoacylation ribozyme variant] | 2.45 |  |
| CCACACUUGAAGCAUUCGGUC [Fam1B.1 aminoacylation ribozyme variant] | 3.66 | 2.09 |
| CCACAGUUCAAGCAAUCGGUC [Fam1B.1 aminoacylation ribozyme variant] | 5.12 | 3.69 |
| CCACCUCAAACAAUCGGUCUG [Fam1A.1 aminoacylation ribozyme variant] | 4.25 | 4.25 |
| CCACUCUUCAACCAAUCGGUC [Fam1B.1 aminoacylation ribozyme variant] | 45.7 | 27 |
| CCACUUCAAACAACCGGUCUG [Fam1A.1 aminoacylation ribozyme variant] | 2.13 |  |
| CGACUUCAGACAAUCGGUCUG [Fam1A.1 aminoacylation ribozyme variant] | 3.95 |  |
| CUAAUUCAAACAAUCGGUCGG [Fam1A.1 aminoacylation ribozyme variant] | 2.14 |  |
| CUACGUCAAAGAAUCGGUCUG [Fam1A.1 aminoacylation ribozyme variant] | 3.41 |  |
| CUACGUCAACCAAUCGGUCUG [Fam1A.1 aminoacylation ribozyme variant] | 3.4 |  |
| CUACUUCAAACAAUCACUCUG [Fam1A.1 aminoacylation ribozyme variant] | 2.98 |  |
| CUACUUCAAACACCCGGUCUG [Fam1A.1 aminoacylation ribozyme variant] |  | 2.08 |
| CUACUUGAAACAAGCGGUCUG [Fam1A.1 aminoacylation ribozyme variant] | 4.76 |  |
| CUUACCCUGGUCGUCGAGUGA [Fam2.1 aminoacylation ribozyme variant] | 5.47 |  |
| GAGGUUGCUAAUAGUCGCAAG [Fam3.1 aminoacylation ribozyme variant] | 3.14 |  |
| GAGUUUGCUAAGAGUCGCAAG [Fam3.1 aminoacylation ribozyme variant] | 3.01 |  |
| UAGUUUGCUAAUAGUCGCAUG [Fam3.1 aminoacylation ribozyme variant] | 3.23 |  |
| UAGUUUGCUAAUAGUCUCAAG [Fam3.1 aminoacylation ribozyme variant] | 3.9 |  |
| UUACUGCAAACAAUCGGUCUG [Fam1A.1 aminoacylation ribozyme variant] | 4.6 |  |
| UUACUUCGAACAAUCGGUCUG [Fam1A.1 aminoacylation ribozyme variant] | 2.19 |  |
